Laboratory results reported in the supplement of paper PMC7877785.
± gives the uncertainty stated by the source.

Experiment: self-splicing fitness, log relative to wild type (ln ratio); higher = more splicing; Tetrahymena group I intron in knt gene, E. coli kanamycin selection, DiMSum; sequences stand for … in CUCUCU…GGAGGGAAAAGUUAUCAGGCAUGCACCUGGUAGCUAGUCUUUAAACCAAUAGAUUGCAUCGGUUUAAAAGGCAAGACCGUCAAAUUGCGGGAAAGGGGUCAACAGCCGUUCAGUACCAAGUCUCAGGGGAAACUUUGAGAUGGCCUUGCAAAGGGUAUGGUAAUAAGCUGACGGACAUGGUCCUAACCACGCAGCCAAGUCCUAAGUCAACAGAUCUUCUGUUGAUAUGGAUGCAGUUCACAGACUAAAUGUCGGUCGGGGAAGAUGUAUUCUUCUCAUAAGAUAUAGUCGGACCUCUCCUUAAUGGGAGCUAGCGGAUGAAGUGAUGCAACACUGGAGCCGCUGGGAACUAAUUUGUAUGCGAAAGUAUAUUGAUUAGUUUUGGAGUACUCGUGGUCG
Method in brief: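 Pooled colonies went to amplicon sequencing on an Illumina HiSeq 2500 after six replicate transformations. The plates were LB agar with 100 μg/mL carbenicillin, 50 μM IPTG and 0.2% rhamnose, with or without 25 μg/mL kanamycin, incubated overnight at 37°C or 30°C. The E. coli BL21(DE3) library had all eight P1ex-region intron nucleotides randomised, the intron placed in the knt kanamycin-resistance gene on pET-22b(+). DiMSum fitness is the error-weighted combination of replicate fold changes, kanamycin against none, normalised to wild type.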

| Sequence | self-splicing fitness (ln) (30 °C) | self-splicing fitness (ln) (37 °C) |
| --- | --- | --- |
| UCGCAGCAAUAUUACGACUU | -1.84 ± 0.2 | -0.512 ± 0.24 |
| AGUCAGCAAUAUUACGCGGU | -2.25 ± 0.15 | -1.45 ± 0.11 |
| ACCCAGCAAUAUUACGUUUG | -4.2 ± 0.13 | -2.44 ± 0.11 |
| CCGAAGCAAUAUUACGCGGA | -3.61 ± 0.43 | -1.78 ± 0.19 |
| AGGCAGCAAUAUUACGGCUU | -2.17 ± 0.12 | -1.83 ± 0.16 |
| GUAUAGCAAUAUUACGAGAU | -3 ± 0.29 | -1.22 ± 0.22 |
| UGUUAGCAAUAUUACGCCUG | 0.435 ± 0.13 | 0.171 ± 0.17 |
| UACUAGCAAUAUUACGUUGC | -2.38 ± 0.26 | -1.85 ± 0.28 |
| UUGCAGCAAUAUUACGGGAG | -1.53 ± 0.11 | -1.58 ± 0.13 |
| GCUUAGCAAUAUUACGUGUC | -1.23 ± 0.14 | -0.348 ± 0.14 |
| AUCUAGCAAUAUUACGCCCG | -0.765 ± 0.38 | -0.733 ± 0.3 |
| UACGAGCAAUAUUACGCUAA | -2.89 ± 0.42 | -2.85 ± 0.35 |
| GGGAAGCAAUAUUACGGACC | -3.81 ± 0.4 | -2.35 ± 0.46 |
| GGCCAGCAAUAUUACGCCUG | -2.83 ± 0.27 | -1.68 ± 0.23 |
| UAUCAGCAAUAUUACGUUUA | -0.174 ± 0.055 | -0.0219 ± 0.069 |
| GGGCAGCAAUAUUACGAUGA | -1.36 ± 0.12 | -0.649 ± 0.11 |
| AAGAAGCAAUAUUACGAUGA | -0.962 ± 0.096 | -0.249 ± 0.09 |
| UGGCAGCAAUAUUACGAACU | -1.29 ± 0.12 | -0.471 ± 0.16 |
| AGUCAGCAAUAUUACGGCAU | 0.126 ± 0.066 | -0.106 ± 0.074 |

| Sequence | self-splicing fitness (ln) (30 °C) | self-splicing fitness (ln) (37 °C) |
| --- | --- | --- |
| GUGCAGCAAUAUUACGAUGG | -3.54 ± 0.37 | -3.15 ± 0.47 |
| UCUGAGCAAUAUUACGGAUA | -3.08 ± 0.47 | -1.57 ± 0.25 |
| AUGGAGCAAUAUUACGUAGU | -2.7 ± 0.11 | -1.62 ± 0.097 |
| CCCGAGCAAUAUUACGAUCU | -3.09 ± 0.19 | -2.68 ± 0.23 |
| AUCGAGCAAUAUUACGAAAU | -2.63 ± 0.37 | -1.87 ± 0.46 |
| CGAUAGCAAUAUUACGAUGU | -0.22 ± 0.14 | -0.614 ± 0.16 |
| CUGGAGCAAUAUUACGUCGC | -2.03 ± 0.46 | -2.57 ± 0.48 |
| AUGCAGCAAUAUUACGUCAA | -2.35 ± 0.19 | -0.997 ± 0.14 |
| UGCUAGCAAUAUUACGGCAA | -0.895 ± 0.16 | -1.1 ± 0.16 |
| ACGUAGCAAUAUUACGCUAG | -2.85 ± 0.12 | -0.713 ± 0.13 |
| GCGGAGCAAUAUUACGGUUC | – | -1.69 ± 0.4 |
| UGUUAGCAAUAUUACGUCCU | -1.31 ± 0.15 | -0.516 ± 0.23 |
| UUCUAGCAAUAUUACGAGCG | -0.769 ± 0.066 | -0.94 ± 0.072 |
| AGUCAGCAAUAUUACGUGGA | -2.73 ± 0.19 | -2.41 ± 0.15 |
| CCGGAGCAAUAUUACGGCGA | -3.92 ± 0.33 | -2.42 ± 0.48 |
| AACCAGCAAUAUUACGGGGA | -2.46 ± 0.097 | -1.09 ± 0.089 |
| UCUCAGCAAUAUUACGGGGU | -4.46 ± 0.37 | -2.8 ± 0.25 |
| AGUAAGCAAUAUUACGGUGU | -2.92 ± 0.14 | -2.44 ± 0.16 |
| GGGUAGCAAUAUUACGUGUG | -1.65 ± 0.11 | -1.24 ± 0.12 |
